From patent publication US11402384B2 (Duke University, priority 2015, dated 2022)
“Also recorded” adds a separate entry of the source.

Experiment: Ratiometric fluorescence glucose titration of fluorescent conjugates
Type: binding
Parameters: key to Shape (fluorescence response to glucose) / Change (fluorescence response to glucose): m, monochromatic; d, dichromatic (i.e. spectral shape change); 0, no change
Conditions: for fluorescence response to glucose: monochromatic or dichromatic emission change
Text: Semi-synthetic FRSs can be engineered by site-specifically attaching thiol-reactive, environmentally sensitive fluorophores that respond to ligand-mediated conformational changes. Identification of FRS candidates that can be used for sensing applications comprises three steps: • 1. Cysteine scan. Mutant glucose-binding proteins containing single cysteines are constructed for site-specific attachment of thiol-reactive fluorophores. […] Candidate positions fall into three classes: endosteric, replacing a residue that contacts the ligand directly; peristeric, located at the rim of the binding site; allosteric (Marvin et al., 1997, Proc Natl Acad Sci USA, 94, 4366-71; Marvin, 1998, J Am Chem Soc, 120, 7-11), located outside the binding site at sites that undergo local structural changes in concert with the hinge-bending motion. • 2. Fluorophore screening. Thiol-reactive, environmentally sensitive fluorophores are attached to each cysteine mutant prepared in step 1. • 3. Evaluation of the glucose-mediated change of all the fluorescent conjugates prepared in step 2. Responses to ligand binding in which there is both a change in fluorescence emission intensity and spectral shape are essential for chemometric applications, because such changes enable ratiometric measurements. Changes in spectral shape typically are accompanied by a shift in the wavelength of the emission intensity maxima. Three classes of fluorescent responses are possible: • i. No response. • ii. Monochromatic response (emission intensity increases or decreases without a change in spectral shape) • iii.
Determination of temperature- and ligand-dependent fluorescence landscapes. […] Temperatures were advanced in 1K steps.
Determination of emission intensity spectra.
2 For a single glucose-binding site, the fractional saturation is given by […]

[1] = tsGBP2 cysteine scan, Acrylodan conjugate
[2] = ttGBP1 homologs, 13C-equivalent mutants labeled with Acrylodan or Badan
[3] = tsGBP2 cysteine scan, Badan conjugate

| Molecule | Shape (fluorescence response to glucose) [1] | Shape (fluorescence response to glucose) [3] | also measured |
| --- | --- | --- | --- |
| E13C Acrylodan: tsGBP2_C13 (SEQ ID NO: 20) Acrylodan conjugate (conjugate, Acrylodan conjugate; tsGBP2_C13 (13C substitution mutant with signal peptide replaced with M and a GGSHHHHHH at C-terminus)) MKLEIFSWWAGDCGPALEALIRLYKQKYPGVEVINATVTGGAGVNAKAVLKTRMLGGDPPDTFQVHAGQELIGTWVVADRMEDLTSLFRQEGWLQAFPKGLIDLLSYKGGIWSVPVNIHRSNVMWYIPAKLKEWGVTPPKTWAEFLATAQTLKRKGLEAPLALGENWTQQHLWESVALATLGADGWNNLWSGKLKFTDPKAVAVWETFGKVLDAANKDAAGLSWQQAVDRVVQGKAAFNIMGDWAAGYMSTTLKLKPGTDFAWTPSPGTSGIFMMLSDSFGLPKGAKNRQNAINWLKLVGSKEGQDTFNPLKGSIAARLDSDPAKYNAYGQSAMKDWKSNRIVGSLVHGAVAPESFMSQFGTVMEIFLQSRNPQAAANAAQAIANQVGLGRGGSHHHHHH | d | – | fluorescence response to glucose (listed as 13C.Acrylodan conjugate): strong dichromatic response; also recorded: strongest dichromatic response; fluorescence response to glucose (listed as Acrylodan conjugate attached to E13C): largest, wavelength-dependent changes in fluorescence emission intensities; Shape (fluorescence response to glucose) [2]: d |
| G41C Badan: tsGBP2_C41 (SEQ ID NO: 21) Badan conjugate (conjugate, Badan conjugate; tsGBP2_C41 (41C substitution mutant with signal peptide replaced with M and a GGSHHHHHH at C-terminus)) MKLEIFSWWAGDEGPALEALIRLYKQKYPGVEVINATVTGCAGVNAKAVLKTRMLGGDPPDTFQVHAGQELIGTWVVADRMEDLTSLFRQEGWLQAFPKGLIDLLSYKGGIWSVPVNIHRSNVMWYIPAKLKEWGVTPPKTWAEFLATAQTLKRKGLEAPLALGENWTQQHLWESVALATLGADGWNNLWSGKLKFTDPKAVAVWETFGKVLDAANKDAAGLSWQQAVDRVVQGKAAFNIMGDWAAGYMSTTLKLKPGTDFAWTPSPGTSGIFMMLSDSFGLPKGAKNRQNAINWLKLVGSKEGQDTFNPLKGSIAARLDSDPAKYNAYGQSAMKDWKSNRIVGSLVHGAVAPESFMSQFGTVMEIFLQSRNPQAAANAAQAIANQVGLGRGGSHHHHHH | – | m | – |
| W244C Acrylodan: tsGBP2_C244 (SEQ ID NO: 30) Acrylodan conjugate (conjugate, Acrylodan conjugate; tsGBP2_C244 (244C substitution mutant with signal peptide replaced with M and a GGSHHHHHH at C-terminus)) MKLEIFSWWAGDEGPALEALIRLYKQKYPGVEVINATVTGGAGVNAKAVLKTRMLGGDPPDTFQVHAGQELIGTWVVADRMEDLTSLFRQEGWLQAFPKGLIDLLSYKGGIWSVPVNIHRSNVMWYIPAKLKEWGVTPPKTWAEFLATAQTLKRKGLEAPLALGENWTQQHLWESVALATLGADGWNNLWSGKLKFTDPKAVAVWETFGKVLDAANKDAAGLSWQQAVDRVVQGKAAFNIMGDCAAGYMSTTLKLKPGTDFAWTPSPGTSGIFMMLSDSFGLPKGAKNRQNAINWLKLVGSKEGQDTFNPLKGSIAARLDSDPAKYNAYGQSAMKDWKSNRIVGSLVHGAVAPESFMSQFGTVMEIFLQSRNPQAAANAAQAIANQVGLGRGGSHHHHHH | m | – | fluorescence response to glucose: strong monochromatic response |
| D12C Badan: tsGBP2_C12 (SEQ ID NO: 19) Badan conjugate (conjugate, Badan conjugate; tsGBP2_C12 (12C substitution mutant with signal peptide replaced with M and a GGSHHHHHH at C-terminus)) MKLEIFSWWAGCEGPALEALIRLYKQKYPGVEVINATVTGGAGVNAKAVLKTRMLGGDPPDTFQVHAGQELIGTWVVADRMEDLTSLFRQEGWLQAFPKGLIDLLSYKGGIWSVPVNIHRSNVMWYIPAKLKEWGVTPPKTWAEFLATAQTLKRKGLEAPLALGENWTQQHLWESVALATLGADGWNNLWSGKLKFTDPKAVAVWETFGKVLDAANKDAAGLSWQQAVDRVVQGKAAFNIMGDWAAGYMSTTLKLKPGTDFAWTPSPGTSGIFMMLSDSFGLPKGAKNRQNAINWLKLVGSKEGQDTFNPLKGSIAARLDSDPAKYNAYGQSAMKDWKSNRIVGSLVHGAVAPESFMSQFGTVMEIFLQSRNPQAAANAAQAIANQVGLGRGGSHHHHHH | – | m | – |
| D12C Acrylodan: tsGBP2_C12 (SEQ ID NO: 19) Acrylodan conjugate (conjugate, Acrylodan conjugate; tsGBP2_C12 (12C substitution mutant with signal peptide replaced with M and a GGSHHHHHH at C-terminus)) MKLEIFSWWAGCEGPALEALIRLYKQKYPGVEVINATVTGGAGVNAKAVLKTRMLGGDPPDTFQVHAGQELIGTWVVADRMEDLTSLFRQEGWLQAFPKGLIDLLSYKGGIWSVPVNIHRSNVMWYIPAKLKEWGVTPPKTWAEFLATAQTLKRKGLEAPLALGENWTQQHLWESVALATLGADGWNNLWSGKLKFTDPKAVAVWETFGKVLDAANKDAAGLSWQQAVDRVVQGKAAFNIMGDWAAGYMSTTLKLKPGTDFAWTPSPGTSGIFMMLSDSFGLPKGAKNRQNAINWLKLVGSKEGQDTFNPLKGSIAARLDSDPAKYNAYGQSAMKDWKSNRIVGSLVHGAVAPESFMSQFGTVMEIFLQSRNPQAAANAAQAIANQVGLGRGGSHHHHHH | m | – | – |
| A42C Acrylodan: tsGBP2_C42 (SEQ ID NO: 22) Acrylodan conjugate (conjugate, Acrylodan conjugate; tsGBP2_C42 (42C substitution mutant with signal peptide replaced with M and a GGSHHHHHH at C-terminus)) MKLEIFSWWAGDEGPALEALIRLYKQKYPGVEVINATVTGGCGVNAKAVLKTRMLGGDPPDTFQVHAGQELIGTWVVADRMEDLTSLFRQEGWLQAFPKGLIDLLSYKGGIWSVPVNIHRSNVMWYIPAKLKEWGVTPPKTWAEFLATAQTLKRKGLEAPLALGENWTQQHLWESVALATLGADGWNNLWSGKLKFTDPKAVAVWETFGKVLDAANKDAAGLSWQQAVDRVVQGKAAFNIMGDWAAGYMSTTLKLKPGTDFAWTPSPGTSGIFMMLSDSFGLPKGAKNRQNAINWLKLVGSKEGQDTFNPLKGSIAARLDSDPAKYNAYGQSAMKDWKSNRIVGSLVHGAVAPESFMSQFGTVMEIFLQSRNPQAAANAAQAIANQVGLGRGGSHHHHHH | 0 | – | – |
| E13C Badan: tsGBP2_C13 (SEQ ID NO: 20) Badan conjugate (conjugate, Badan conjugate; tsGBP2_C13 (13C substitution mutant with signal peptide replaced with M and a GGSHHHHHH at C-terminus)) MKLEIFSWWAGDCGPALEALIRLYKQKYPGVEVINATVTGGAGVNAKAVLKTRMLGGDPPDTFQVHAGQELIGTWVVADRMEDLTSLFRQEGWLQAFPKGLIDLLSYKGGIWSVPVNIHRSNVMWYIPAKLKEWGVTPPKTWAEFLATAQTLKRKGLEAPLALGENWTQQHLWESVALATLGADGWNNLWSGKLKFTDPKAVAVWETFGKVLDAANKDAAGLSWQQAVDRVVQGKAAFNIMGDWAAGYMSTTLKLKPGTDFAWTPSPGTSGIFMMLSDSFGLPKGAKNRQNAINWLKLVGSKEGQDTFNPLKGSIAARLDSDPAKYNAYGQSAMKDWKSNRIVGSLVHGAVAPESFMSQFGTVMEIFLQSRNPQAAANAAQAIANQVGLGRGGSHHHHHH | – | m | Change (fluorescence response to glucose) (tsGBP 13C affinity mutants, Acrylodan or Badan conjugates): m/d; Shape (fluorescence response to glucose) [2]: m |
| G41C Acrylodan: tsGBP2_C41 (SEQ ID NO: 21) Acrylodan conjugate (conjugate, Acrylodan conjugate; tsGBP2_C41 (41C substitution mutant with signal peptide replaced with M and a GGSHHHHHH at C-terminus)) MKLEIFSWWAGDEGPALEALIRLYKQKYPGVEVINATVTGCAGVNAKAVLKTRMLGGDPPDTFQVHAGQELIGTWVVADRMEDLTSLFRQEGWLQAFPKGLIDLLSYKGGIWSVPVNIHRSNVMWYIPAKLKEWGVTPPKTWAEFLATAQTLKRKGLEAPLALGENWTQQHLWESVALATLGADGWNNLWSGKLKFTDPKAVAVWETFGKVLDAANKDAAGLSWQQAVDRVVQGKAAFNIMGDWAAGYMSTTLKLKPGTDFAWTPSPGTSGIFMMLSDSFGLPKGAKNRQNAINWLKLVGSKEGQDTFNPLKGSIAARLDSDPAKYNAYGQSAMKDWKSNRIVGSLVHGAVAPESFMSQFGTVMEIFLQSRNPQAAANAAQAIANQVGLGRGGSHHHHHH | d | – | – |
